{"source": "patent US20070031511A1", "about": "“Method of treatment” (priority 2003, published 2007)", "target": "Ggly receptor on IMGE-5 cells", "assay": "cell-based or functional assay"}
{"substance": "pentapeptide E5", "values": [{"measurement": "ED50 (nM), proliferation of IMGE cells, thymidine uptake", "value": 1.4, "unit": "nM"}]}
